Laboratory results as given in PMC10769282.

Biological target: SARS-CoV-2 Spike, BA.1 variant of concern, 21-amino-acid truncated form (SARS-CoV-2 (BA.1)) (UniProt P0DTC2)

Substance | IC50, neutralisation of BA.1 Spike pseudovirus [µg/mL]
SA58 VH T53L A61S, VL N95V (antibody) | 11
SA58 VH T53L A61S (antibody) | 12
SA58 VL S54T (antibody) | 12
